In the NTF2 design screens of Basanta et al. (2020):

Experiment: protease stability score; higher = more stable; yeast display proteolysis, trypsin and chymotrypsin;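 note: log10 excess protease needed over predicted unfolded state with 0 meaning unfolded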

Sequence	protease stability score
DEDHDVRVAENLLEAIRTGNEDEVTRLADENAELEIGDHRYHGREQVSSAAKRINDRADDISINEVHYTGDKLSVQMQMNVNGKNIVVDVVVVAHNGRVKTVRFQYTSEEDFKKFES	0.538
DEDHEAQRFFDHFEEVVQTGDPDQAKQLIDKNATAKYGDQEYHGWEDVHKHWLRLRRQADHIKFEVDDVRATNGRYEIQFVVIIDTNGNENTRRYRLQAQEDNGRLRVQNLTQQ	1.49
DEDHESRVVELLEEIVRKGDPDEVRRQADPDARVDYGDKRLHGRDFRKAAKIIEEMRVDHQQFTTYKTHNGRAQMLVTVEHNGERRDIQIIVHYRGDKMKEMRFDTG	-0.224
DEDHIKTHAEELMNALSRGDEKRFVDLVDPNARFRIGDKEYKGSEQLHTLMREIHTEVDHIEVRHLRVRNGQVQATIRYDINGKTRSMTIHFEVENGRVKHMEVSSQ	1.3
DEDHKAREMMRRWEHNWRTGDPNKLANQFDPNATWDVGDHTIKGREQYAEQIKRNMEQADDVHITVKDVKREGETIVVRFHDVQNHNGQNRVTIVNARFFDDNGSFVMVSFKQE	-0.321
DEDHLHRLVKEMVKVLQQGDPDRFMELADKDATAVIGDKRFHGRTQARKAVKEFTDTVDHIRIKTFNAHGDKVTIVVRLDHNGKNAILRIEFQVDNGRFKEVVFDPDHLQDLRR	0.071
DEDHLKDANRRVVHALEHGDPDEFMNMADKDVQIEIGDTVVEGSHKLKEWAEDLHNRVDHIEILKVDLQGDTLNLNVRMRSNGHNRNAVLHVRVHNGKIQSLRMKDN	0.55
DEDHLKKFVSDLQHNSHERLSKQADENAEMEVGNKTYSGREQFSHFAQQQYHRADHFTIDRVEIRNGHITLEAVMVVDGHKIRFSAHAELHNGRLKFYVMKATNEDLVRQMNRLNN	0.701
DEDHLRKLKEYVKNYNKGDPDKLDEYLDPNVRINVGDHTVHGMDEHNKQAEERTRNMRIQLRRVDVKARNGQLKATINAEAEVNGRPATLHADITVKMHNGKVKNIHVRMPEDYKREREK	0.008
DEDHMRTLIQRFIEAVQKGDEEQIKRLADPNARMRVGEREIHGREEIAKEIKDIRDQVDHINIRTWSFHNGEAHLEVEYNHNGQHRTMKLRIVVRNGKLQELEWRKG	2.39
DEDHNRRLAHTIVEILRTGDPDKMNEQLDPNARAHYGDHEIHGRENVAKMVKELHDRVDHFTVKTYDADGDHITIELVMKVNGRNVEMTVVVRVRNGRLVDLRYRYTSEEQEKTEKE	2.12
DEDHNRRVAKRFIEAVLSGDPEQAKRNADKHVKLQVGDKEYRGRDDLKTWIEQVSTRADHNQIHSMSVSGNRMNVDVKFNHNGRRERTVIRVEVENGKVKKVEVHSG	0.975
DEDHQAEKIFRDLVEAFKNGDEKRAEELFDPNARLQYGDKTYHGRKAASRLVSHVRTEFDHVDWQIKSVTRTGDKIDIDVDATADHNGHQDKFKIIITLKVTNGKAVLKEVRFK	1.94
DEDHRERLANHAVEAFQDGDPQQMEELADEDARAEVGDKELTGRERISKMVKTIADNVDHIELKSYEKTGDTVRFHMVLDDNGKQKRLVLVVRIHNGRLKELRIQQS	1.53
DEDHVQDKAEDLARAIQRGDEDRMNELFDENVKVQVGDKTIHGRENVVDHMREQNEQADRIEIKSITATGDKIRIEMVVVHNGQNTHVVFEVKWENGKIKHMTQKTE	1.94
DEDINKMVKEFIRNMQNGNHSRLAQLADPNARVQIGDKTLHGREDLERHVRELTERSRVEYKSVDVKVHNGRAHLHLDVVVHHNGRPQRSRVQAVFTAQGDKIKDIRVESNQ	0.116
DEDIRRHVKEFIEALRTGNEDQLRTLADKNVRFEYGDKEIHGRETYAKHVKKLKEESSIEIKDYKVTAQGNTVSAKIRQVVNHNGKPQHHVVILQAVFHNGKLKEMRTKDDG	-0.26
DEDITEAVRRLEKAREDGDPNKVRELLPEDARAQYGDKTYHGRDEVAKYRETEMKQMTVQMNIRSVENHNGRADIEFEVTREHNGKPTHDHNRATILAHNGKIKVIEIHSTK	-0.422
DEDKAKEFMRKALHILLEGDPDKFVRMADKDAHIQVGEHTVHGREQVRKFIQELQDKVDHNDVVDYEVRPNHANIEFQMNVNGRTVRMRVRLEFKNGKFKRATFDPDDVRKLHT	1.33
DEDKARRLAEKLFEYMMKGKKDEAKKFLDPDVRYEYVDETVEGPKVAEHVVRKIRKLGMKVETKEMEIRGDKARAVFVYRNGDNQVETTVEAQYEGDKLKEVRVELTDEVKKQVTQG	0.804
DEDKARRVMEKLFKIVKNGNKDEMKKMGKPNVQYTYVDKRYEGEEAAKKDVEIDKEVGARVQERELEVKGDTVKAVFQYQQGDTTVQTHVEAHYEGDKVKEVKVELTEEVQKIVEQG	-0.248
DEDKEAEKLVKEMQENQRQGDEEKWANLFDEDAHFRIGDKHLHGRQDLQDNVRKWRHNYDHLSVRMKDLKHDGDKARLHVVITQRHNGKNDSMTVDIVIVKQNGRVRIKNFQAP	0.513
DEDKEAKKAIDDWKKIIDTNDEDQARRMFDPNAKVTIGDKTYHGREQASTLFHQLMKRFDHMSFHVDKVRVHNGQVDAVVTARFNHNGRTEEMRLRFRFDDHNGQLVIVQIDWE	1.35
DEDKEAREIAKKIARDLNRGNQEEVVKQFDPNVRLNIGDKEVTGREEVRKEVKKVQQKFDHADIRIRDYRSEGDSANLDFYLTLTHNGRHDKRRWTLHLENHNGRYIVKHVQHN	0.028
DEDKEDRVRTWVEAQKTGDPDKAKENADPNVRVEYGDKTIHGMSEIVKHIKREKHESRRTIDSYSVSASGDHITVRIDMHVKHDGQPRRKDYTETIVIRNGKIRHIKRRDDK	0.36
DEDKEDRVVKTFLTAVRTGDPHTARNMLDENARVHIGEKNFHGKERASEAIKEFRDQVDEVHIRTIKVRGDRFNIDMTLHFNGKNADLTVNVRVHNGKIQDVQFDPDQMQHLQG	0.86

Sequence	protease stability score
DEDKEIRKFIKNNKDILKNGDPREYVRQMDPNAKMQYGDKQVRGNDQLERHLHTKLKRIDSQSVDFKDVDLKGDKIRLRARRTYQFNGRTSSEEFVVVMTFTNGQARVHKINYK	0.103
DEDKEKKINKDIADAWQNGDEQQMQKQIPPEVRIQVGDKTVHGREHIHKWMRRWRERVDHLQLKDMTAHNGNMRIKFVIRHNGRQDVRQVHIQVDNGTVHTASFDTE	0.43
DEDKEQELAHHIISIIQTGNPDSFMNMADPNAKVNIGDTRLRGREQIVHFYREQFRQADNREVKDVRAHNGRITIDAVRNINGRNERYVVDIQIENGKATEINVRHT	0.045
DEDKHAHELAKKLQKVWEEGAEEKQQELVDEDDRKNIGEHTYNGEEQLRRDLDKLRKDADHVDMKLKQIRFQGDKARIDMVVSQTVNGKRNTDRFTVEARLNNGRLRIKQVTKN	0.813
DEDKHAKRVMENLTRAMNQGDKRRAADMVDPNVRLVIGDKEYHGRHQFRRAIKELVDRADHIEIDVRDVKTKNGRVQAHAHVEATYNGKKNDFKMVAEVEVQGENVVVHQITLK	1.13
DEDKHAQDHMDQLTRLRKHGNFEKLANMADEDVEVHYGDKQVHGREQVVKTIKSEADDVDHFDVKVQEYHVQGDHIHVVNEFTLERNGQYRTDEQQFTVQITNGSIRIKNMTKK	-0.475
DEDKHVHRAFEEMLTVMEKGNEDEVKRLVDKDVRVHIGDKSYRGRTNVAKQIVDWARRADHIEIEVTEIDIQGDQVTMRATAHATHNGKTQSYDFTIILRIENGRAVIHSWHVS	0.923
DEDKKADEFMKRWIDNLQNGNEDELRKLIDPNARLDIGDKTLHGREDIVHHLSETLKRVDHLEIRVEHIEVQGDKATFVYHITMRTNGRTHSSEVQFEAEEHNGNLIIKSIHER	1.57
DEDKKKHDLIHTFLTLQHNGDFKQLARMFDPNAKVRVGDKDIRGREQIEKMFEKVRESVDRVSVSLTHMDNHGDKVRMEARVTQHVNGRNHDFTITITFRQVGDKVRASHQSVS	0.584
DEDKLDHLARKAAEIMVQGDPDKFRDMFDPNAKLRYGDKELRGREEADKAIEEMQKRVDSSDVEDITAHNGRANAVLVLNHNGRHKRFVLVVDVRNGRATKASMHDD	-0.062
DEDKLKSMFRQLQRVLTQGNPHDARKLFDEDAHLVVGDKRWTGREEVVKFIEELTRRYDHLEIKSFSVSNGRMVVNASAHVNGKSIDIHYIMEVDNGRVKYLRVDVRNEEELKKVLS	1.27
DEDKLRDVAKRLQEIIHTNNPDDLNKQADKDARVQVGDKEYKGRRDVYKFMETLKHQVDQIEIHDVKFDGDHAHFHVMMNVNGKKVEVHIIMEVENGKVKELNFDPKNMEQLDK	0.708
DEDKLREVAEEMNKGDPQTLADNADKDARLRVGDREWHGREDVEKFNNQWRREVDHVDIERVTVSPNRVEAVYVVTVNGKRIHAKFEAKVHDGRIKEMTVSVTNPEQQKDLERQVD	-0.1
DEDKLTDKAHQIIRALETGDPDQIRNLAPPNVRFDYGDKRYHGREKAEERAKRERENIDHMEIKDFDVQGNKIQIRAVVEHNGRSREFVVTFEQNNGTLRFARMQSK	-0.342
DEDKLTRVEDFLRLQEQNNEDELLKQMDPNATQRYGNKHVHGSSEVKRFLHRLHREMRIRVEMKSVEVHGDEVVMKADFSKTFNGRPETLTATVVFKVHNGRIQKIIFEERK	1.41
DEDKMKEIAKKFMDYLVNGHADEVRKMGKEGVRVHVGDTTIQGPDQLKEYVKKFKDQGVHNEYKEEEVKGDTITMHTKAQLGNAEVDFEVHYVVKGDKVEKFEVKTDKKQQEKFKKS	-0.352
DEDKMKEVIEKVLRMLETGDPHEASKLADENAKIRYGDKTYHGRDQVHELLDRITKRVDHVEIKDFSVQGEQLVLHFVLNINGKNKEVVLVATVHNGRIKSLHVDDQ	1.26
DEDKMKSILTVAQEGDPDEMKRQADEDARVHIGDKRVHGRESFQKAMDEYTKAVDSQHVKRVSSRENRVKVTAVLRFNGSHIDVVVQIRAHNGRIEEIIFRVTDPKQKTTLKKIIS	0.053
DEDKMLKIAQEMAEAVVNGNVEQMKKQAHEGVQVHVGDEEVHGPDQLEEYVKKFKDQGVEVHYKETEHKGDTVTLKTTAVLGDAQVEFEAHYVVKGDKLQRFEVKLNKEQLKDFRKS	0.242
DEDKMLKVAKEAVEAITKGNAEQIKKVGKEGVQVTFGDEKYHGPDQLEEYVKKVKDQGNHIEYKEQEFKGDTATVKTEAEKGDQKVTFEVHYQVKGNKLDRLEVRFDKEQQKKFEQS	-0.256
DEDKNKEAVERFLHNLENGDWQSLADLADKNAKVQIGDETVSGRESAQNELRKFAERVDHVDYHDMTVQGDKFEVVFQEDHNGRKRKVVAEFRVKNGRFKHVVFDDG	-0.008
DEDKNKKFADKVVRALEQNNEEEMNELFPPDARVEVGDKQIHGREEIQKYMQKIRDQVDHVEVKSMEVDGDKITVHVTVHHNGTSRTVVFIFHVRNGRLTEMKVKTG	0.04
DEDKNKKRAEEWQRILEDNDEERFSKLADKDVRFVIGDKEVHGSEQAETWIRTIKHRVDHIQLEDMKVNGNKIVIDLVMVHNGRKHRYKVVMEFHNGSVKYVQYNDS	-0.06
DEDKNNRDMQDMIRAVITNDEKRVQELMDPNASVTVGDHTFKGTEAVTHLITDLRNHIDHVELNSVSVHNGKAKADMVFTVNGQHVKIEMNAQAHNGKVTQFDVSARSEEEHKKYKQ	-0.542
DEDKQAKEMMKRFVHMMQEGDPSEAKRLFDKNARLVVGDKRFHGQHEASKFAEEIKKRYDKVHVELKDLKVHGDKVDAKAKVVLNDNGQKDTHEVVITALFHNGRIKVQEVRVQ	0.983
